# Source: publication PMC3534030 (2012)
# B1: EGF (protein)
# chain: NSYPGCPSSYDGYCLNGGVCMHIESLDSYTCNCVIGYSGDRCQTRDLRWWELR
# modifications: 125I-labeled EGF
# Molecular target: EGFR (Homo sapiens, UniProt P00533)
# Test: 125I-EGF radioligand saturation binding on human bone marrow mesenchymal progenitor cells
binder,measurement,value
B1,Kd,0.0349 nM
